Results: US20030148417

How the values were obtained:
[1] = molecular target: bovine haemoglobin, P01966
bovine haemoglobin, P01966, sequence (P01966 2-142, chain 1 of 2): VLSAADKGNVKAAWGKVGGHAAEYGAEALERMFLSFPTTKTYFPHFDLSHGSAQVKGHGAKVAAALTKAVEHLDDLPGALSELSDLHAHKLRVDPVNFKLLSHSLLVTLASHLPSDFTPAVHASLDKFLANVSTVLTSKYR
bovine haemoglobin, P01966, sequence (chain, as listed by the source, chain 2 of 2): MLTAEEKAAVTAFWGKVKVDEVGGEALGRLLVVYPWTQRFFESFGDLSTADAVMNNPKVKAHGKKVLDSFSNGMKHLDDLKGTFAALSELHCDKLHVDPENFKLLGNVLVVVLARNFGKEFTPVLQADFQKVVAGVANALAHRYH

B1: recombinant TcAP2 protein (aspartic endoproteinase from Theobroma cacao, secreted by Yarrowia lipolytica clone pCY330-33) (protein)
chain: VSNDGLVRIGLKKMKLDPNNRLAARLDSKDGEALRAFIKKYRFRNNLGDSEETDIVALKNYMDAQYYGEIGIGTPTQKFTVIFDTGSSNLWVSSTKCYFSVACYFHEKYKASDSSTYKKDGKPASIQYGTGAISGFFSYDHVQVGDLVVKDQEFIEATKEPGLTFMVAKFDGILGLGFKEISVGDAVPVWYNMIKQGLIKEPVFSFWLNRNVDEEAGGEIVFGGVDPNHYKGKHTYVPVTQKGYWQFDMGDVLIADKPTGYCAGSCAAIADSGTSLLAGPSTVITMINHAIGATGVVSQECKAVVQQYGRTIIDLLIAEAQPQKICSQIGLCTFNGAHGVSTGIESVVDESNGKSSGVLRDAMCPACEMAVVWMQNQVRQNQTQDRILSYVNELCDRVPNPMGESAVDCGSLSSMPTISFTIGGKVFDLTPEEYILKVGEGSEAQCISGFTALDIPPPRGPLWILGDIFMGRYHTVFDFGKLRVGFAEAAHHH
hydrolysis of bovine haemoglobin (OPA assay, pH 3, 42 C) [1]: 25.8±1.45 pmoles L-leucine/min/mg protein
endoprotease activity (hydrolysis of bovine haemoglobin) (Pepstatin A): completely inhibited by 2 µM pepstatin
pepstatin insensitive activity (hydrolysis of bovine haemoglobin, 2 µM pepstatin) (Pepstatin A): 1.91±1.26 pmoles L-leucine/min/mg protein, 6.65%
